This note sets out measurements from patent publication US20240254220A1, “COMBINED THERAPY USING ANTI-CD300C ANTIBODY” (CentricsBio, Inc., priority 2021, published 2024).

One assay addresses T1, CD300c antigen (Homo sapiens, UniProt Q08708).
T1 sequence (Q08708 21-224): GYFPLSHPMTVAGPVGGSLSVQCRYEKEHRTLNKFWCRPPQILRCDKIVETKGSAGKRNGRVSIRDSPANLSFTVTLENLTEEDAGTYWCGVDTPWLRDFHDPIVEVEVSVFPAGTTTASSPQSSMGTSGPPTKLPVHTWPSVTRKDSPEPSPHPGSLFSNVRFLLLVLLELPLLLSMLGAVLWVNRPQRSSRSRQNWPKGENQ
In words: Binding ELISA of CL7 (Experimental Example 2.3). To be noted: CL7 diluted from 10 μg/mL. The protocol: CD300c antigen (250 ug/mL) was diluted to a concentration of 800 ng/mL in coating buffer (0.1 M sodium carbon ate, pH 9.0), placed into a 96-well microplate at 100 μL per well, and incubated at 4° C. overnight. The next day, the microplate was washed three times with 200 μL of PBST. Thereafter, 200 μL of a blocking buffer (5% skim milk) was added thereto, followed by blocking at room temperature for 1 hour. The anti-CD300c monoclonal antibody CL7 was diluted to 200 μg/mL in PBS, and the concentration thereof was checked by measurement using Nanodrop (product name: NanoDrop One/One, manufactured by Thermo Fisher Scientific). Subsequently, CL7 was diluted in quadruplicate with PBS starting from 10 μg/mL, and added at 100 μL each, followed by incubation at room temperature for 1 hour. After the incubation, the microplate was washed three times with […] of PBST. A secondary antibody (conjugated anti-Fc IgG) was diluted 1:10,000 in blocking buffer, and added at 100 μL, followed by incubation at room temperature for 1 hour, and then washed three times with 200 μL of PBST. […] Then, 50 μL of 1 N sulfuric acid was added to stop development, and measurement was performed at 450 nm using a microplate reader (product name: Varioskan LUX) to obtain binding affinity results.

Assay [1] deals with mouse macrophages (Raw264.7). As to the kind of experiment: TNF-α production in mouse macrophages (M1 differentiation). In kind it is cell-based. To be noted: Raw264.7, 10 μg/mL. The protocol:
In order to identify whether anti-CD300c monoclonal antibodies can promote the differentiation from mouse macrophages into M1 macrophages, mouse macrophages (Raw264.7) were dispensed into a 96-well plate at a concentration of 1×10^4 cells/well, and then treated with 10 μg/mL CL7, followed by incubation. Thereafter, the production amount of TNF-α was identified by an ELISA kit (Human TNF-α Quantikine kit, R&D Systems).

In assay [2] the test system is colon cancer cell line (CT26) tumor. As to the kind of experiment: In vivo cancer growth inhibition, CT26 model, CL7 dose range. More on the design: species or system BALB/c mice. The following applies: 1, 5, 10 or 25 mg/kg i.p. on D11, D14, D18, D21; 25 days. The protocol:
In order to identify anticancer effects of the anti-CD300c monoclonal antibody CL7 under in vivo conditions, a colon cancer cell line (CT26) at 2×10^5 cells was transplanted by subcutaneous injection into 8-week-old BALB/c mice to prepare syngeneic mouse tumor models. Animal breeding and experiments were all conducted in a SPF facility. On day 11 (D11) after the transplantation of the colon cancer cell line, the mice with a tumor size of 50 mm^3 to 100 mm^3 were administered the anti-CD300c monoclonal antibody 1 mg/kg, 5 mg/kg, 10 mg/kg, or 25 mg/kg, respectively, and for a control group, the mice were administered the same amount of phosphate buffered saline (PBS). Specifically, the mice were intraperitoneally injected with each dosage twice a week for two weeks (a total of 4 times on D11, D14, D18, and D21). The tumor volume was measured for 25 days.

The test system is the same in assay [3]. In words: Nanostring Immune profiling of CT26 tumor tissue. In kind it is in vivo, BALB/c mice. To be noted: 25 mg/kg i.p., tumor RNA, vs control. The method, then: In order to identify changes in expression of immune cell- and tumor microenvironment-related markers when solid cancer models are administered the anti-CD300c monoclonal antibody (CL7) produced in Example 1, a colon cancer cell line (CT26) at 2×10^5 cells was transplanted by subcutaneous injection into 8-week-old BALB/c mice to prepare syngeneic mouse tumor models. Animal breeding and experiments were all conducted in a specific pathogen free (SPF) facility. In addition, 12 days after transplantation of the colon cancer cell line, the mice with a tumor size of 50 mm^3 to 100 mm^3 were separately administered the anti-CD300c monoclonal antibody, and for a control group, the mice were injected with the same amount of phosphate buffered saline (PBS). The mice were intraperitoneally injected with 25 mg/kg twice a week for two weeks over a total of 4 times. On day 25 after the injection, the mice were euthanized, and the tumor tissue was prepared. RNA was extracted and purified therefrom, and changes in dendritic cell markers, macrophage markers, tumor microenvironment (TME) markers, Th1 response markers, or Th2 response markers were identified through Nanostring Immune profiling.
On the basis of the Nanostring Immune profiling results obtained in Example 2.1, it was identified which immune checkpoint markers show a significant difference in expression compared with the control group when syngeneic mouse tumor models are administered the anti-CD300c monoclonal antibody.

The next assay relates to THP-1. In words: M1 macrophage marker ELISA in THP-1. The format is cell-based, human. The following applies: THP-1, 10 μg/mL, 48 hours, antibody alone. The method, then: In order to identify whether the induction of differentiation of monocytes into M1 macrophages increases when the cells are treated with the anti-CD300c monoclonal antibody CL7 produced in Example 1 and an immunotherapeutic agent, such as Imfinzi as an anti-PD-L1 antibody, Opdivo as an anti-PD-1 antibody, KEYTRUDA as an anti-PD-1 antibody, an anti-CD47 antibody (αCD47), and an anti-CTLA-4 antibody, alone in combination, THP-1 was dispensed into a 96-well plate at 1.5×10^4 cells/well and treated with the anti-CD300c monoclonal antibody and the immunotherapeutic agent, respectively, at 10 μg/mL alone or in combination, followed by incubation for 48 hours, and the production levels of tumor necrosis factor-α (TNF-α), IL-1b, and IL-8, which are differentiation markers of M1 macrophages, were measured using an ELISA kit (Human TNF-α Quantikine kit, R&D Systems).
A general note: In an ELISA, binding on a coated surface is turned into a signal by an enzyme label.

In assay [4] the test system is colon cancer cell line (CT26) tumor. As to the kind of experiment: Tumor volume, complete remission and long-term survival, CT26 model, combined administration. In kind it is in vivo, BALB/c mice. The following applies: CL7 25 mg/kg, anti-PD-1 10 mg/kg, anti-CTLA-4 4 mg/kg i.p. D11, D14, D18.

B1: CL7: anti-CD300c monoclonal antibody, VH3VL1 phage library, VH SEQ ID 327, VL SEQ ID 328 (antibody, V domains shown)
VH: EVQLLESGGGLVQPGGSLRLSCAASGFTFSRYAMSWVRQAPGKGLEWVSAISGSGGSTYYADSVKGRFTISRDNSKNTLYLQMNSLRAEDTAVYYCARSSQGIFDIWGQGTLVTVSS
VL: QSVLTQPPSASGTPGQRVTISCSGNNIGTRRVHWYQQLPDTAPKLLIYSKNNRPSGVPDRFSGSKSGTSASLAISGLRSEDEADYYCAAWDDSLSGPVFGGGTKLTVL
modifications: CL7 Heavy Chain Variable Region; CL7 Light Chain Variable Region
B1: the “binding to CD300c” value with CD300c antigen is recorded as “bound to CD300c in a concentration-dependent manner”. The “production level of TNF-α” value in assay [1] was “increased”. For the same molecule, the “growth of CT26 colon cancer (tumor volume)” value in assay [2] is listed as “delayed the growth of CT26 colon cancer in a dose-dependent manner”. In assay [3], the “expression of M1 macrophage markers CCR7, CD80” value is on record as “significantly increase”; the “expression of Th1 response markers Tbx21, Stat1, Stat4, Ifn-g, Cxcr3” value was “increase”; the “expression of agonistic immune checkpoints ICOS, OX40, Gitr, Cd27, Cd28” value is “increases”; the “expression of dendritic cell markers Bst2, CCL8, Xcl1” value is “significantly increase”. Also, in assay [3], the “expression of inhibitory immune checkpoints PD-1, CTLA-4, Lag3” value is on record as “increases” and the “expression of tumor microenvironment markers vegfa, pdgfrb, Col4a1, Hif1a” value is given as “reduction”. In the assay with THP-1, the “production level of IL-8” value is listed as “significantly increased” and the “production levels of all three differentiation markers (TNF-α, IL-1b, IL-8)” value is listed as “increased”. Besides, the “growth of cancer (tumor volume)” value in assay [4] is recorded as “inhibited”.
